Test results as given in patent US20240376151A1, “STAPLED PEPTIDES AND METHODS THEREOF” (FOG PHARMACEUTICALS, INC., priority 2022, published 2024).

Target: T1, RNF31 UBA domain (Homo sapiens, UniProt Q96EP0)
T1 construct: RNF31 UBA domain protein (residues 480-639) with N-terminal Thioredoxin-TEV-6×his-yBBr-3C tags; Thioredoxin (N, cleaved yes); made in house; host or cells: E. coli BL21 (DE3) pLysS
T1 sequence (Q96EP0 480-639): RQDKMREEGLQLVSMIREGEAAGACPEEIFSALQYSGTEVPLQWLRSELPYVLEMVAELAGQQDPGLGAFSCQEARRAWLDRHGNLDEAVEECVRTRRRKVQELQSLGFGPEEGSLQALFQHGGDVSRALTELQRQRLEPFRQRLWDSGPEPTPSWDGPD
Test: Phage Library Screening with NGS, RNF31 UBA domain
Format: binding
Conditions: for Phage library screen NGS readout, Target Concentration 10 / Phage library screen NGS readout, Target Concentration 30 / Phage library screen NGS readout, Target Concentration 100 / Phage library screen NGS readout, Target Concentration 300 / Phage library screen NGS readout, Target Concentration 1000: RNF31 UBA domain cluster C46; for Phage library screen NGS readout, BLANK: cluster C46; for phage screen NGS read-out at Target Concentration 10 / phage screen NGS read-out at Target Concentration 30 / phage screen NGS read-out at Target Concentration 100 / phage screen NGS read-out at Target Concentration 300: no competitor

[1] = target concentration 1000, first column
[2] = target concentration 1000, second column

Sequence	Phage library screen NGS readout, Target Concentration 10	Phage library screen NGS readout, Target Concentration 30	Phage library screen NGS readout, Target Concentration 100	Phage library screen NGS readout, Target Concentration 300	Phage library screen NGS readout, Target Concentration 1000 [1]	Phage library screen NGS readout, Target Concentration 1000 [2]	Phage library screen NGS readout, BLANK (column 1 of 5)	Phage library screen NGS readout, BLANK (column 2 of 5)	Phage library screen NGS readout, BLANK (column 3 of 5)	Phage library screen NGS readout, BLANK (column 4 of 5)	Phage library screen NGS readout, BLANK (column 5 of 5)	phage screen NGS read-out at Target Concentration 10	phage screen NGS read-out at Target Concentration 30	phage screen NGS read-out at Target Concentration 100	phage screen NGS read-out at Target Concentration 300
DPALTNCFSAAVYCAMF	8	39	131	239	297	291	0	1	1	0	0				
DPAMIQCLSAAVYCVHY												1	3	8	
DPAMYICEMAAANCLYQ												0	1	1	6
DPANEHCIAAAWWCQIL												0	0	0	3
DPAQLNCLSAAMYCALY	2	19	49	95	104	111	0	0	1	0	0				
DPAQMFCYSAAVYCAAF	0	0	4	5	8	4	0	0	0	0	0				
DPAQMSCFSAAVYCRLF	0	0	11	10	10	17	0	0	0	0	0				
DPAQNHCDSAAVFCYIL												0	0	1	8
DPAQQHCSAAAAWCVVL												0	0	1	10
DPAQQICLSAAVFCSIF												0	0	4	10
DPAQRDCFSAAVYCSFL													210	40	88
DPAQRQCLSAAVFCATL	3	24	137		292	319	0	1	1	0	1				
DPAQRQCLSAAVWCATF	10	57	121	199	201	203	1	0	2	1	0				
DPAQVHCRSAAAWCILM												0	0	0	2
DPAQWVCHMAAMNCLYQ												0	1	0	4
DPAREHCAAAATWCOLL (DPAREHCAAAATWCQLL)												1	0	1	28
DPAREHCDSAAAWCWVL												0	0	1	4
DPAREHCDSAAIFCYIL												0	0	1	14
DPARWVCELAAQNCLYR												0	1	1	1
DPARYHCEAAAAWCELL												0	0	0	8
DPASASCLSAAIYCSMF	5	17	122	255	247	297	0	0	1	0	0				
DPASIHCAAAALWCDIL												0	0	1	8
DPASIICMLAADNCLYE												0	0	0	0
DPASMVCLSAAVYCAMH												1	15	38	77
DPASSHCQSAAIWCYLM												1	0	6	35
DPATLVCTMAANNCIYR												0	0	0	1
DPATQHCLAAAMWCHLI												0	0	1	3
DPAVQSCLSAAVYCAFR	2	9	68	106	117	118	0	1	2	0	1				
DPAYEHCVAAAYWCYLL												1	0	11	30
